In EP3529371B1:
Where two headings read alike, the source gives them in different places.

Legend:
Experiment in all cases: cell-based or functional assay
[1] = molecular target: H6tHA1S(146-206)-NL-S (Macaca mulatta (Rhesus macaque)) (UniProt P60877)
[2] = molecular target: H6tHA1S(146-206)-sfGFP-S (Macaca mulatta (Rhesus macaque)) (UniProt P60877)
[3] = molecular target: H6tHAtev1S(140-197)L (Photinus pyralis) (UniProt P60877)
[4] = molecular target: H6tHAtev1S(146-206)LS D179KA199R (Photinus pyralis) (UniProt P60877)
[5] = molecular target: H6tHAtev1S(146-206)LS D179KN196QQ197NR198K (Photinus pyralis) (UniProt P60877)
[6] = molecular target: H6tHA1V(2-94)-sfGFP-S (Bos taurus (Bovine)) (UniProt P63026)
[7] = molecular target: H6tHAtev1V(60-94)L (Photinus pyralis)
[8] = molecular target: H6tHA1V(2-94)-sfGFP-S (Bos taurus (Bovine)) (UniProt P63026); remark: listed apart in the source

Sequence of UniProt P63026 (P63026 2-94): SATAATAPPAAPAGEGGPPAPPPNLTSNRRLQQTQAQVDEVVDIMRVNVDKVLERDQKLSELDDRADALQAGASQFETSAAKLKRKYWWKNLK

Molecule	EC50 of cleavage of generic substrate with reporter NL, JDZ-buffer, 1 h 37°C [1]	EC50 of cleavage of generic substrate with reporter sfGFP, JDZ-buffer, 1 h 37°C [2]	EC50 of substrate cleavage, endopeptidase assay, JDZ-buffer, 1 h 37°C [4]	EC50 of substrate cleavage, endopeptidase assay, JDZ-buffer, 1 h 37°C [5]	EC50 of cleavage of generic substrate with reporter sfGFP, JDZ-buffer, 1 h 37°C [6]	further results
BoNT/E1 (recombinant, activated full-length) (from UniProt Q00496 2-1251) (enzyme)	0.2 nM	0.1 nM	1000 nM	1000 nM		EC50 of substrate cleavage, endopeptidase assay, JDZ-buffer, 1 h 37°C [3]: 0.2 nM
BoNT/B1 (recombinant, activated full-length) (from UniProt B1INP5 2-1291) (enzyme)					0.02 nM	EC50 of substrate cleavage, endopeptidase assay, JDZ-buffer, 1 h 37°C [7]: 0.6 nM; fold increase of EC50 relative to generic H6tHAtev1V(2-94)LS [7]: 10 fold
BoNT/C (recombinant, activated full-length) (from UniProt P18640 2-1291) (enzyme)	10 nM	20 nM	200 nM	0.6 nM		fold decrease of EC50 relative to generic H6tHAtev1S(146-206)LS [5]: 16 fold
BoNT/A1 (recombinant, activated full-length) (from UniProt P0DPI1 2-1296) (enzyme)	0.01 nM	0.03 nM	0.4 nM			
BoNT/D (recombinant, activated full-length) (from UniProt P19321 2-1276) (enzyme)					1 nM	
BoNT/F1 (recombinant, activated full-length) (enzyme) MPVVINSFNYNDPVNDDTILYMQIPYEEKSKKYYKAFEIMRNVWIIPERNTIGTDPSDFDPPASLENGSSAYYDPNYLTTDAEKDRYLKTTIKLFKRINSNPAGEVLLQEISYAKPYLGNEHTPINEFHPVTRTTSVNIKSSTNVKSSIILNLLVLGAGPDIFENSSYPVRKLMDSGGVYDPSNDGFGSINIVTFSPEYEYTFNDISGGYNSSTESFIADPAISLAHELIHALHGLYGARGVTYKETIKVKQAPLMIAEKPIRLEEFLTFGGQDLNIITSAMKEKIYNNLLANYEKIATRLSRVNSAPPEYDINEYKDYFQWKYGLDKNADGSYTVNENKFNEIYKKLYSFTEIDLANKFKVKCRNTYFIKYGFLKVPNLLDDDIYTVSEGFNIGNLAVNNRGQNIKLNPKIIDSIPDKGLVEKIVKFCKSVIPRKGTKAPPRLCIRVNNRELFFVASESSYNENDINTPKEIDDTTNLNNNYRNNLDEVILDYNSETIPQISNQTLNTLVQDDSYVPRYDSNGTSEIEEHNVVDLNVFFYLHAQKVPEGETNISLTSSIDTALSEESQVYTFFSSEFINTINKPVHAALFISWINQVIRDFTTEATQKSTFDKIADISLVVPYVGLALNIGNEVQKENFKEAFELLGAGILLEFVPELLIPTILVFTIKSFIGSSENKNKIIKAINNSLMERETKWKEIYSWIVSNWLTRINTQFNKRKEQMYQALQNQVDAIKTVIEYKYNNYTSDERNRLESEYNINNIREELNKKVSLAMENIERFITESSIFYLMKLINEAKVSKLREYDEGVKEYLLDYISEHRSILGNSVQELNDLVTSTLNNSIPFELSSYTNDKILILYFNKLYKKIKDNSILDMRYENNKFIDISGYGSNISINGDVYIYSTNRNQFGIYSSKPSEVNIAQNNDIIYNGRYQNFSISFWVRIPKYFNKVNLNNEYTIIDCIRNNNSGWKISLNYNKIIWTLQDTAGNNQKLVFNYTQMISISDYINKWIFVTITNNRLGNSRIYINGNLIDEKSISNLGDIHVSDNILFKIVGCNDTRYVGIRYFKVFDTELGKTEIETLYSDEPDPSILKDFWGNYLLYNKRYYLLNLLRTDKSITQNSNFLNINQQRGVYQKPNIFSNTRLYTGVEVIIRKNGSTDISNTDNFVRKNDLAYINVVDRDVEYRLYADISIAKPEKIIKLIRTSNSNNSLGQIIVMDSIGNNCTMNFQNNNGGNIGLLGFHSNNLVASSWYYNNIRKNTSSNGCFWSFISKEHGWQEN						EC50 of cleavage of generic substrate with reporter sfGFP, JDZ-buffer, 1 h 37°C [8]: 0.06 nM
